Results reported in patent US20230357429A1 (JANUX THERAPEUTICS, published 2023).
Like-named read-outs stand apart in the source and are kept apart here. Where no end group is shown, it is not given here.

T1: Peptide-4 (cysteine pairing not given here; also: biotinylated, site not given here)
T1 peptide: VDFCKIYAWPICGS

T2: Peptide-13 (cysteine pairing not given here; also: biotinylated (site not given here))
T2 peptide: VDFCELYRWPICNS

T3: Peptide-25 (cysteine pairing not given here; also: biotinylated (site not given here))
T3 peptide: VDFCKIYSWPVCHQ

T4: Peptide-1 (cysteine pairing not given here; also: biotinylated (site not given here))
T4 peptide: IDFCAMYQWPICDT

T5: Peptide-3 (cysteine pairing not given here; also: biotinylated, site not given here)
T5 peptide: IDFCMLYNWPICAG

T6: Peptide-8 (cysteine pairing not given here; also: biotinylated, site not given here)
T6 peptide: VDFCGLYHWPICYQ

T7: Peptide-43 (cysteine pairing not given here; also: biotinylated, site not given here)
T7 peptide: VDFCALYHWPICYQ

T8: Peptide-45 (cysteine pairing not given here; also: biotinylated, site not given here)
T8 peptide: VDFCYQYGWPICSRVD

T9: Peptide-46 (cysteine pairing not given here; also: biotinylated, site not given here)
T9 peptide: VEFCAIYSWPICKI

T10: Peptide-47 (cysteine pairing not given here; also: biotinylated, site not given here)
T10 peptide: VDFCYQYGWPICSRLY

T11: Peptide-48 (cysteine pairing not given here; also: biotinylated, site not given here)
T11 peptide: VDFCYMYKWPVCYP

T12: Peptide-49 (cysteine pairing not given here; also: biotinylated, site not given here)
T12 peptide: IDFCLLYKWPVCEL

T13: Peptide-50 (cysteine pairing not given here; also: biotinylated, site not given here)
T13 peptide: VDFCAIYSWPICKI

T14: Peptide-51 (cysteine pairing not given here; also: biotinylated, site not given here)
T14 peptide: VDFCGLYHWPICYQV

T15: Peptide-52 (cysteine pairing not given here; also: biotinylated, site not given here)
T15 peptide: VDFCYQYAWPVCSTGD

T16: Peptide-53 (cysteine pairing not given here; also: biotinylated, site not given here)
T16 peptide: IDFCRVYDWPVCSL

T17: Peptide-54 (cysteine pairing not given here; also: biotinylated, site not given here)
T17 peptide: VDFCYRYSWPVCWA

T18: Peptide-55 (cysteine pairing not given here; also: biotinylated, site not given here)
T18 peptide: VDFCYKYNWPICSR

T19: Peptide-56 (cysteine pairing not given here; also: biotinylated, site not given here)
T19 peptide: VDFCYQYGWPICSRV

T20: Peptide-57 (cysteine pairing not given here; also: biotinylated, site not given here)
T20 peptide: IDFCYRYGWPVCQT

T21: Peptide-59 (cysteine pairing not given here; also: biotinylated, site not given here)
T21 peptide: VDFCALYNWPVCAI

T22: Peptide-60 (cysteine pairing not given here; also: biotinylated, site not given here)
T22 peptide: VDFCNLYHWPICAI

T23: Peptide-61 (cysteine pairing not given here; also: biotinylated, site not given here)
T23 peptide: VDFCALYHWPVCGL

T24: Human TROP2 ECD (31-274 AA), biotinylated (human, UniProt P09758 31-274, biotinylated (site not stated))
T24 construct: captured on neutravidin plates; also called TROP2-biotin; Trop2-biotin
T24 sequence: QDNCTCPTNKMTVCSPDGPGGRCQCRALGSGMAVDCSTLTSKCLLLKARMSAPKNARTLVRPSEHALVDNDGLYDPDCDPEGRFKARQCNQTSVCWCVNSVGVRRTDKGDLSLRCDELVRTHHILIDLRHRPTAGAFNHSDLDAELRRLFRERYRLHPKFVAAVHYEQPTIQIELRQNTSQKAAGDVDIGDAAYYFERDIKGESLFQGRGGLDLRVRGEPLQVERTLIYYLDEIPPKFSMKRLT

T25: Peptide-28 (cysteine pairing not given here; also: biotinylated, site not given here)
T25 peptide: NYLLCVKNLYCWIV

T26: Peptide-24 (cysteine pairing not given here; also: biotinylated (site not given here))
T26 peptide: SVLFCVKNLYCWVT


What was measured:
Peptide-4 = target: T1, Peptide-4; experiment: ELISA, Fab on captured biotin-peptide
Method: (§1) Binding was measured in a standard ELISA format. […] Bound TBDs were detected using a standard horse radish peroxidase conjugate secondary antibody. The ELISA signal was plotted versus the log-scale concentration of TBD. The concentrations of TBD required to observe half maximal binding signal (EC₅₀s) were calculated using Graphpad Prism software.

Peptide-13 = target: T2, Peptide-13; experiment: ELISA, Fab on captured biotin-peptide
Method: as §1

Peptide-25 [1] = target: T3, Peptide-25; experiment: ELISA, Fab on captured biotin-peptide
Method: as §1

Peptide-1 = target: T4, Peptide-1; experiment: ELISA, Fab on captured biotin-peptide
Method: as §1

Peptide-3 = target: T5, Peptide-3; experiment: ELISA, Fab on captured biotin-peptide
Method: as §1

Peptide-8 = target: T6, Peptide-8; experiment: ELISA, Fab on captured biotin-peptide
Method: as §1

Peptide-43 = target: T7, Peptide-43; experiment: ELISA, Fab on captured biotin-peptide
Method: as §1

Peptide-45 = target: T8, Peptide-45; experiment: ELISA, Fab on captured biotin-peptide
Method: as §1

Peptide-46 = target: T9, Peptide-46; experiment: ELISA, Fab on captured biotin-peptide
Method: as §1

Peptide-47 = target: T10, Peptide-47; experiment: ELISA, Fab on captured biotin-peptide
Method: as §1

Peptide-48 = target: T11, Peptide-48; experiment: ELISA, Fab on captured biotin-peptide
Method: as §1

Peptide-49 = target: T12, Peptide-49; experiment: ELISA, Fab on captured biotin-peptide
Method: as §1

Peptide-50 = target: T13, Peptide-50; experiment: ELISA, Fab on captured biotin-peptide
Method: as §1

Peptide-51 = target: T14, Peptide-51; experiment: ELISA, Fab on captured biotin-peptide
Method: as §1

Peptide-52 = target: T15, Peptide-52; experiment: ELISA, Fab on captured biotin-peptide
Method: as §1

Peptide-53 = target: T16, Peptide-53; experiment: ELISA, Fab on captured biotin-peptide
Method: as §1

Peptide-54 = target: T17, Peptide-54; experiment: ELISA, Fab on captured biotin-peptide
Method: as §1

Peptide-55 = target: T18, Peptide-55; experiment: ELISA, Fab on captured biotin-peptide
Method: as §1

Peptide-56 = target: T19, Peptide-56; experiment: ELISA, Fab on captured biotin-peptide
Method: as §1

Peptide-57 = target: T20, Peptide-57; experiment: ELISA, Fab on captured biotin-peptide
Method: as §1

Peptide-59 = target: T21, Peptide-59; experiment: ELISA, Fab on captured biotin-peptide
Method: as §1

Peptide-60 = target: T22, Peptide-60; experiment: ELISA, Fab on captured biotin-peptide
Method: as §1

Peptide-61 = target: T23, Peptide-61; experiment: ELISA, Fab on captured biotin-peptide
Method: as §1

[2] = target: T24, Human TROP2 ECD (31-274 AA), …; experiment: ELISA, Fab on captured biotin-TROP2
[3] = target: T24, Human TROP2 ECD (31-274 AA), …; experiment: ELISA, Fab on captured biotin-TROP2; remark: listed apart in the source
[4] = target: T24, Human TROP2 ECD (31-274 AA), …; experiment: ELISA, Fab on captured biotin-TROP2; remark: listed apart in the source
Peptide-28 = target: T25, Peptide-28; experiment: ELISA, Fab on captured biotin-peptide
Method: as §1

Peptide-25 [5] = target: T3, Peptide-25; experiment: ELISA, Fab on captured biotin-peptide; Table 19 peptide set (separate ELISA run)
Method: as §1

Peptide-24 = target: T26, Peptide-24; experiment: ELISA, Fab on captured biotin-peptide
Method: as §1

Binder | EC50 (Peptide-4) | EC50 (Peptide-13) | EC50 (Peptide-25 [1]) | EC50 (Peptide-1) | EC50 (Peptide-3) | EC50 (Peptide-8) | EC50 (Peptide-43) | EC50 (Peptide-45) | EC50 (Peptide-47) | EC50 (Peptide-48) | EC50 (Peptide-49) | EC50 (Peptide-50) | EC50 (Peptide-51) | EC50 (Peptide-53) | EC50 (Peptide-54) | EC50 (Peptide-55) | EC50 (Peptide-56) | EC50 (Peptide-57) | EC50 [2] | EC50 [3] | also measured
TBD-1 wt (Fab, V domains shown, Fab; the heavy chain entry is VH-CH1; also called wild-type anti-TROP2 Fab (hRS7); TROP2 Fab) VH: QVQLQQSGSELKKPGASVKVSCKASGYTFTNYGMNWVKQAPGQGLKWMGWINTYTGEPTYTDDFKGRFAFSLDTSVSTAYLQISSLKADDTAVYFCARGGFGSSYWYFDVWGQGSLVTVSS VL: DIQLTQSPSSLSASVGDRVSITCKASQDVSIAVAWYQQKPGKAPKLLIYSASYRYTGVPDRFSGSGSGTDFTLTISSLQPEDFAVYYCQQHYITPLTFGAGTKVEIKR | 9.2 nM | 157 nM | 48.2 nM | 22.5 nM | 91.5 nM | 55.6 nM | 28.6 nM | 50.8 nM | 113 nM | 21.5 nM | 296 nM | 96.2 nM | 45.1 nM | 45.3 nM | 63.5 nM | 15.7 nM | 52.8 nM | 25.7 nM | – | – | EC50 (Peptide-46): 668 nM; EC50 (Peptide-52): 127 nM; EC50 (Peptide-59): 61.1 nM; EC50 (Peptide-60): 47.8 nM; EC50 (Peptide-61): 191 nM
TBD-6 (LC I93A) (Fab, V domains shown, Fab; also called LC I93A mutant) VH: QVQLQQSGSELKKPGASVKVSCKASGYTFTNYGMNWVKQAPGQGLKWMGWINTYTGEPTYTDDFKGRFAFSLDTSVSTAYLQISSLKADDTAVYFCARGGFGSSYWYFDVWGQGSLVTVSS VL: DIQLTQSPSSLSASVGDRVSITCKASQDVSIAVAWYQQKPGKAPKLLIYSASYRYTGVPDRFSGSGSGTDFTLTISSLQPEDFAVYYCQQHYATPLTFGAGTKVEIKR | 15.3 nM | 21.4 nM | 38.3 nM | 14.8 nM | 12.5 nM | 12.2 nM | 5.3 nM | 32.6 nM | 79.9 nM | 12.2 nM | 18.3 nM | 21.9 nM | 13.5 nM | 4.4 nM | 30 nM | 6.1 nM | 33.3 nM | 9.2 nM | 0.3 nM | 0.3 nM | EC50 [4]: 0.3 nM; EC50 (Peptide-28): 681 nM; EC50 (Peptide-46): 102 nM; EC50 (Peptide-52): 39.3 nM; EC50 (Peptide-59): 5.4 nM; EC50 (Peptide-60): 7.7 nM; EC50 (Peptide-61): 11.8 nM
TBD-11 (HC R98A) (Fab, V domains shown, Fab; also called HC R98A mutant) VH: QVQLQQSGSELKKPGASVKVSCKASGYTFTNYGMNWVKQAPGQGLKWMGWINTYTGEPTYTDDFKGRFAFSLDTSVSTAYLQISSLKADDTAVYFCAAGGFGSSYWYFDVWGQGSLVTVSS VL: DIQLTQSPSSLSASVGDRVSITCKASQDVSIAVAWYQQKPGKAPKLLIYSASYRYTGVPDRFSGSGSGTDFTLTISSLQPEDFAVYYCQQHYITPLTFGAGTKVEIKR | 179 nM | 388 nM | > 1000 nM | 292 nM | 296 nM | 319 nM | 43.6 nM | 138 nM | 304 nM | 42.4 nM | 130 nM | 35.5 nM | 244 nM | 32.5 nM | 147 nM | 36.8 nM | 127 nM | 85.6 nM | 3.4 nM | 3.4 nM | EC50 [4]: 3.4 nM; EC50 (Peptide-59): 92.8 nM; EC50 (Peptide-60): 60.4 nM; EC50 (Peptide-61): 272 nM; EC50 (Peptide-25 [5]): 453 nM
TBD-17 (HC S104A) (Fab, V domains shown, Fab; also called HC S104A mutant) VH: QVQLQQSGSELKKPGASVKVSCKASGYTFTNYGMNWVKQAPGQGLKWMGWINTYTGEPTYTDDFKGRFAFSLDTSVSTAYLQISSLKADDTAVYFCARGGFGSAYWYFDVWGQGSLVTVSS VL: DIQLTQSPSSLSASVGDRVSITCKASQDVSIAVAWYQQKPGKAPKLLIYSASYRYTGVPDRFSGSGSGTDFTLTISSLQPEDFAVYYCQQHYITPLTFGAGTKVEIKR | 6.5 nM | 10 nM | 38.8 nM | 7.3 nM | – | – | – | – | – | – | – | – | – | – | – | – | – | – | 0.3 nM | 0.3 nM | EC50 (Peptide-24): 133 nM; EC50 (Peptide-28): 247 nM
TBD-21 (HC F108A) (Fab, V domains shown, Fab; also called HC F108A mutant) VH: QVQLQQSGSELKKPGASVKVSCKASGYTFTNYGMNWVKQAPGQGLKWMGWINTYTGEPTYTDDFKGRFAFSLDTSVSTAYLQISSLKADDTAVYFCARGGFGSSYWYADVWGQGSLVTVSS VL: DIQLTQSPSSLSASVGDRVSITCKASQDVSIAVAWYQQKPGKAPKLLIYSASYRYTGVPDRFSGSGSGTDFTLTISSLQPEDFAVYYCQQHYITPLTFGAGTKVEIKR | 12.7 nM | 22.6 nM | 48.4 nM | 13.5 nM | – | – | – | – | – | – | – | – | – | – | – | – | – | – | 4.2 nM | 4.2 nM | EC50 (Peptide-24): 142 nM; EC50 (Peptide-28): 146 nM
